Assay results: patent US20200239562A1 (ANAPTYSBIO, published 2020)

Target: T1, human IL-33 (human, UniProt O95760 112-270, limits assumed)
T1 construct: also called Interleukin-33
T1 sequence (looked up): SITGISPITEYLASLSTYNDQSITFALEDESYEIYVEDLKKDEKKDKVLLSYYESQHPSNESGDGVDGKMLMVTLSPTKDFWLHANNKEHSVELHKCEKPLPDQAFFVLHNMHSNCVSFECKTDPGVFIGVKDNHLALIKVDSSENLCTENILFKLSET
Assay: method not stated

Kd: ~1 pM
B1: ANB020 (antibody, V domains shown)
VH: QVQLMQSGAEVKKPGASVKVSCKASGYTFTSYWMHWVRQAPGQGLEWMGTIYPRNSNTDYNQKFKARVTMTRDTSTSTVYMELSSLRSEDTAVYYCARPLYYYLTSPPTLFWGQGTLVTVSS
VL: DIQLTQSPSFLSASVGDRVTLTCKASQDVGTAVAWTQQKPGKAPKLLIYWASTRHTGVPSRFSGSGSGTEFTLTISSLQPEDFATYYCQQAKTYPFTFGSGTKLEIK
